Values of other authors in paper PMC3583350.

Biological target: FcεRIα ECD (Homo sapiens) (UniProt P12319)
Chain of UniProt P12319 (P12319 26-205): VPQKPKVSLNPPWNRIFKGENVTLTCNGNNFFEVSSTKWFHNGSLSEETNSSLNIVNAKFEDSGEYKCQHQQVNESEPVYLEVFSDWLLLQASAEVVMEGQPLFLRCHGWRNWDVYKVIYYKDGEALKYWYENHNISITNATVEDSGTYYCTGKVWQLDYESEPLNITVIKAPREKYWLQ

- Kd: 1 nM
Substance: IgE-Fc Fc (from UniProt P01854)
